Residue numbers refer to the chain shown, from its start.
Experiments:
[1] = target: T1, Full-length human Ang-1 protein conjugated to 6x histidine tag (human, UniProt Q15389 20-498, limits assumed); assay: blocking ELISA, 0.6 nM hAng-1-His to coated hTie-2-mFc
T1 construct: Bought (R&D Systems); printed as full-length; also called hAng-1 WT; Ang-1-His; not shown: 6x histidine tag
T1 sequence (looked up): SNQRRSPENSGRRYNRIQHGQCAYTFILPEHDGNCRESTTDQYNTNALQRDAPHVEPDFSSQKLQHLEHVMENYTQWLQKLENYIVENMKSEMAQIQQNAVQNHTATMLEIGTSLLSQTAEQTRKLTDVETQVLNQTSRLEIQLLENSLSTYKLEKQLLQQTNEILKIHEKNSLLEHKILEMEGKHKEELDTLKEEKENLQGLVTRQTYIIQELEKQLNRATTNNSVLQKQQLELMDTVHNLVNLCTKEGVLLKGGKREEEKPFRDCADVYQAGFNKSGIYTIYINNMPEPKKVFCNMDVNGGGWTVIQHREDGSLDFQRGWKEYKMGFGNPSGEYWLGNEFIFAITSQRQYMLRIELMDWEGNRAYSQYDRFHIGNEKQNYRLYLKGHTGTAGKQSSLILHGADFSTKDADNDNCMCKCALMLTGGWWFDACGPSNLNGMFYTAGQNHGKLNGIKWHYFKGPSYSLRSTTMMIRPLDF
Method: Briefly, hTie-2-mFc (a chimeric construct consisting of human Tie-2 conjugated to mouse IgG; SEQ ID NO:525) was coated onto 96-well plates at a concentration of 2 μg/ml and incubated overnight followed by washing four times in wash buffer (PBS with 0.05% Tween-20). The plate was then blocked with PBS (Irvine Scientific, Santa Ana, Calif.) containing 0.5% BSA (Sigma-Aldrich Corp., St. Louis, Mo.) for one hour at room temperature. […] The antibody/antigen mixture was then added to the plate containing hTie-2-mFc and incubated for one hour at room temperature. […] Absorbance was read at OD₄₅₀ for 0.1 sec.

[2] = target: T2, wild-type Ang-2FD-mFc construct (human, UniProt O15123 282-496); assay: SPR 25C, hAng-2FD-mFc captured on anti-mFc, 100 nM analyte
T2 construct: also called WT; hAng-2FD-mFc; not shown: mouse Fc
T2 sequence: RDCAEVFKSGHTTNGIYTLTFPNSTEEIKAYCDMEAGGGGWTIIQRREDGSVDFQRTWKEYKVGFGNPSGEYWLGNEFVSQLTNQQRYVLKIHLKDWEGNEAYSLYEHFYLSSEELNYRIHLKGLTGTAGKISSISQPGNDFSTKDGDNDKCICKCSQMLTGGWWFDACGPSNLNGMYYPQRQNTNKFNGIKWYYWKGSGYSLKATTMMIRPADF

hAng-2FD-mFc S-417-I = target: T3, hAng-2FD-mFc S-417-I (human, UniProt O15123 282-496); assay: as above
T3 construct: not shown: mouse Fc
T3 chain: T2 sequence with S136I

hAng-2FD-mFc K-432-N = target: T4, hAng-2FD-mFc K-432-N (human, UniProt O15123 282-496); assay: as above
T4 construct: not shown: mouse Fc
T4 chain: T2 sequence with K151N

hAng-2FD-mFc I-434-M = target: T5, hAng-2FD-mFc I-434-M (human, UniProt O15123 282-496); assay: as above
T5 construct: not shown: mouse Fc
T5 chain: T2 sequence with I153M

hAng-2FD-mFc N-467-G = target: T6, hAng-2FD-mFc N-467-G (human, UniProt O15123 282-496); assay: as above
T6 construct: not shown: mouse Fc
T6 chain: T2 sequence with N186G

hAng-1-WT [3] = target: T7, hAng-1-WT (human, UniProt Q15389 20-498, limits assumed); assay: SPR, 1 uM blocker premixed with 10 nM hAng-1-WT, over hTie-2-mFc surface
T7 construct: a tag is not mentioned there; also called full-length wild-type human Ang-1
T7 sequence (looked up): T1 sequence (looked up)
Method: (§1) In this experiment, a human Tie-2 full-length extracellular domain construct (hTie-2-mFc-ecto) was amine-coupled on a BIACORE™ chip to create a receptor coated surface. […] The equilibrated solutions were injected over the receptor surfaces at 5 μL/min for 5 minutes at 25° C.

hAng-1-WT [4] = target: T7, hAng-1-WT; assay: SPR, 1 uM blocker premixed with 10 nM hAng-1-WT, over hTie-2-mFc surface; RU of hAng-1 bound
Method: as §1

- IC50 [1]: 187 nM
- Kd [2]: 0.0398 nM
- RU [2]: 213 RU
- T ½ [2]: 15.1 h
- Kd (hAng-2FD-mFc S-417-I): 0.0512 nM
- RU (hAng-2FD-mFc S-417-I): 127 RU
- T ½ (hAng-2FD-mFc S-417-I): 26.5 h
- Kd (hAng-2FD-mFc K-432-N): 0.0487 nM
- RU (hAng-2FD-mFc K-432-N): 137 RU
- T ½ (hAng-2FD-mFc K-432-N): 28.2 h
- Kd (hAng-2FD-mFc I-434-M): 0.0318 nM
- RU (hAng-2FD-mFc I-434-M): 213 RU
- T ½ (hAng-2FD-mFc I-434-M): 43.1 h
- Kd (hAng-2FD-mFc N-467-G): 0.0772 nM
- RU (hAng-2FD-mFc N-467-G): 139 RU
- T ½ (hAng-2FD-mFc N-467-G): 16.9 h
- Percent of Negative Control Binding (hAng-1-WT [3]): 34%
- RU (average) (hAng-1-WT [4]): 57 RU
B1: H1H744N (antibody, V domains shown)
VH: QVQLVQSGVEVKKPGASVKVSCKTSGYTFSNNGFSWVRQAPGQGLEWLGWISGYNGNTNYAQKFQGRVTMTTDTSTSTAYMELRTLRSDDTAVYYCARDQDYSNFHWLDPWGQGTLVTVAS
VL: DIQMTQSPSSVSASVGDRVIITCRASQGLSSWLAWYQQKPGTAPKLLIHSASSLQTGVPSRFSGSGSGTEFALTINSLQPEDFGTYYCQQANSFPLTFGGGTRVEIK

— US20140112930A1 (published 2014)
